The values that follow come from article PMC10330758 (DNA repair, 2023).

The test addresses N-terminally his-tagged human DHX9 (human, UniProt Q08211 1-1270). Kind of test: pull-down.

Chain of N-terminally his-tagged human DHX9 (Q08211 whole entry): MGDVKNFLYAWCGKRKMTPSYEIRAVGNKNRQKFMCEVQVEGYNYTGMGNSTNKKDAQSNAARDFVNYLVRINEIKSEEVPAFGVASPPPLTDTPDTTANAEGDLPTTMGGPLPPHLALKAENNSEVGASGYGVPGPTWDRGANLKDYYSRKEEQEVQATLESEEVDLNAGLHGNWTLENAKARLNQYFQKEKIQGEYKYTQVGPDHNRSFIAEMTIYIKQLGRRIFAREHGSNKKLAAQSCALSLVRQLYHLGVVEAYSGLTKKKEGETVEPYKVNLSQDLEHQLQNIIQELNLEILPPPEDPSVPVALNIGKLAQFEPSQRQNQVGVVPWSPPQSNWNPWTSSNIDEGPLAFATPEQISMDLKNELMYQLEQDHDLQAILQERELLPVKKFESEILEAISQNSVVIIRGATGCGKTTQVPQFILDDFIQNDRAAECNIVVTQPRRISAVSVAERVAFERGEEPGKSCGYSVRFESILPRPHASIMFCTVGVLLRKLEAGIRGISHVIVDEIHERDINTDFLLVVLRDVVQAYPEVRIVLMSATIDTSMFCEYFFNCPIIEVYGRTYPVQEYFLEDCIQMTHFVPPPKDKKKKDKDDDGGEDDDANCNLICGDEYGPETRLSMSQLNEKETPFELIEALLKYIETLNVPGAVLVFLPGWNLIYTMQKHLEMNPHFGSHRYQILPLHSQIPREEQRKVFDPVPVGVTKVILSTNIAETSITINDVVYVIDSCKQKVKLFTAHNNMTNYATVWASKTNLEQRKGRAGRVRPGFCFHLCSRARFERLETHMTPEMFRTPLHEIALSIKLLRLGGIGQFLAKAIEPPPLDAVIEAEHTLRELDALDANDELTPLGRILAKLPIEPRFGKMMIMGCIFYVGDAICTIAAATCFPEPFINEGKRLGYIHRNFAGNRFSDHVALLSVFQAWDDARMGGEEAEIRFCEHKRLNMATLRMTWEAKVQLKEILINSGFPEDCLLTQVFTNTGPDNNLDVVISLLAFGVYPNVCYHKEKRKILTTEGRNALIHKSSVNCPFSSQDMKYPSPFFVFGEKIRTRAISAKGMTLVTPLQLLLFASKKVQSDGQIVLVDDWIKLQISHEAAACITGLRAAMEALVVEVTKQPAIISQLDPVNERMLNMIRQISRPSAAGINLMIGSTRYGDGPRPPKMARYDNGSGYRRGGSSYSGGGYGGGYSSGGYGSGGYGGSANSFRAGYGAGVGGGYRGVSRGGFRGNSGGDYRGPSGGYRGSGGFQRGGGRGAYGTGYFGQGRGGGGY

B1: Un-tagged p125 subunit of Pol δ (enzyme, human, UniProt P28340 1-1107, looked up)
chain: MDGKRRPGPGPGVPPKRARGGLWDDDDAPRPSQFEEDLALMEEMEAEHRLQEQEEEELQSVLEGVADGQVPPSAIDPRWLRPTPPALDPQTEPLIFQQLEIDHYVGPAQPVPGGPPPSRGSVPVLRAFGVTDEGFSVCCHIHGFAPYFYTPAPPGFGPEHMGDLQRELNLAISRDSRGGRELTGPAVLAVELCSRESMFGYHGHGPSPFLRITVALPRLVAPARRLLEQGIRVAGLGTPSFAPYEANVDFEIRFMVDTDIVGCNWLELPAGKYALRLKEKATQCQLEADVLWSDVVSHPPEGPWQRIAPLRVLSFDIECAGRKGIFPEPERDPVIQICSLGLRWGEPEPFLRLALTLRPCAPILGAKVQSYEKEEDLLQAWSTFIRIMDPDVITGYNIQNFDLPYLISRAQTLKVQTFPFLGRVAGLCSNIRDSSFQSKQTGRRDTKVVSMVGRVQMDMLQVLLREYKLRSYTLNAVSFHFLGEQKEDVQHSIITDLQNGNDQTRRRLAVYCLKDAYLPLRLLERLMVLVNAVEMARVTGVPLSYLLSRGQQVKVVSQLLRQAMHEGLLMPVVKSEGGEDYTGATVIEPLKGYYDVPIATLDFSSLYPSIMMAHNLCYTTLLRPGTAQKLGLTEDQFIRTPTGDEFVKTSVRKGLLPQILENLLSARKRAKAELAKETDPLRRQVLDGRQLALKVSANSVYGFTGAQVGKLPCLEISQSVTGFGRQMIEKTKQLVESKYTVENGYSTSAKVVYGDTDSVMCRFGVSSVAEAMALGREAADWVSGHFPSPIRLEFEKVYFPYLLISKKRYAGLLFSSRPDAHDRMDCKGLEAVRRDNCPLVANLVTASLRRLLIDRDPEGAVAHAQDVISDLLCNRIDISQLVITKELTRAASDYAGKQAHVELAERMRKRDPGSAPSLGDRVPYVIISAAKGVAAYMKSEDPLFVLEHSLPIDTQYYLEQQLAKPLLRIFEPILGEGRAEAVLLRGDHTRCKTVLTGKVGGLLAFAKRRNCCIGCRTVLSHQGAVCEFCQPRESELYQKEVSHLNALEERFSRLWTQCQRCQGSLHEDVICTSRDCPIFYMRKKVRKDLEDQEQLLRRFGPPGPEAW
Take B1: the binding result was “binds”.
